T1: Annexin A1 on cancer cells (SNU1, MDA-MB-231) (UniProt P04083 2-346, limits assumed)
T1 construct: whole, on cells; Endogenous protein of cancer cell lines said to overexpress Annexin A1; Assay buffer was HBSS(+) with Ca2+ and Mg2+; also called Annexin A1 on cancer cell surfaces; extracellular portion of Annexin A1 in cancer cells
T1 sequence (looked up): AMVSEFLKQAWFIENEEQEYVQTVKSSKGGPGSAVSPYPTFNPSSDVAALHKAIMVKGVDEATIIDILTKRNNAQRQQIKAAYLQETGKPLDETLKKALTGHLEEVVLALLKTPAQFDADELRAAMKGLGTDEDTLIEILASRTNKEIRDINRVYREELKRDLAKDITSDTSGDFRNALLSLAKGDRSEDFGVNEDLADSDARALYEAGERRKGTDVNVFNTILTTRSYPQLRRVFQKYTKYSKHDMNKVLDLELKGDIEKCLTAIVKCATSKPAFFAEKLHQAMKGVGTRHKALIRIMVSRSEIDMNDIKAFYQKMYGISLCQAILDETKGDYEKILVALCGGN

T2: full-length Annexin A1 protein (346 amino acids; Accession No. NP-000691.1) (human, UniProt P04083 1-346)
T2 construct: Biotinylated for biopanning; coated at 4 ug per well for ELISA
T2 sequence: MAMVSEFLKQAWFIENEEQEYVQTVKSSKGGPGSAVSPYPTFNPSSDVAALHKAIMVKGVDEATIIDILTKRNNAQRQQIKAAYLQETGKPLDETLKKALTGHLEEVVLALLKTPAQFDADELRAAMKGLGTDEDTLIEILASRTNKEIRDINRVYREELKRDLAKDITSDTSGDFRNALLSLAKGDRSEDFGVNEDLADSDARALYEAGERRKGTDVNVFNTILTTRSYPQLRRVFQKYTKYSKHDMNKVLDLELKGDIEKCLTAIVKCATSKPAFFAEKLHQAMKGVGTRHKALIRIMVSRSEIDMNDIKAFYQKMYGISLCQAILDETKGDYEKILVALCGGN

T3: Annexin A1 N-terminal peptide (30 amino acids, biotin conjugated) (biotin conjugated form (position not given))
T3 construct: Synthetic peptide, captured on streptavidin-coated plates for ELISA; also called N-terminal region of Annexin A1; Annexin A1 N-terminus
T3 peptide: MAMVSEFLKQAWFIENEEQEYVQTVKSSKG

B1: scFv F4 (scFv)
scFv: EVQLLESGGGLVQPGGSLRLSCAASGFTFSGYYMSWVRQAPGKGLEWVSSISPSGSSIYYADSVKGRFTISRDNSKNTLYLQMNSLRAEDTAVYYCAKGSPGFDYWGQGTLVTVSSGGGGSGGGGSGGGGSQSVLTQPPSASGAPGQRVTISCSGSSFNIGSNDVSWYQQLPGTAPKLLIYSDSHRPSGVPDRFSGSKSGTSASLAISGLQSEDEADYYCGSWDYSLSAYVFGGGTKLTVLG
B2: scFv N32 (scFv)
scFv: EVQLLESGGGLVQPGGSLRLSCAASGFTFSNYAMSWVRQAPGKGLEWVSGIYPNSGSNTYYADSVKGRFTISRDNSKNTLYLQMNSLRAEDTAVYYCARRPTLFDYWGQGTLVTVGSGGGGSGGGGSGGGGSQSVLTQPPSASGTPGQRVTISCTGSSSNIGSNSVNWYQQLPGTAPKLLIYSDSHRPSGVPDRFSGSKSGTSASLAISGLQSEDEADYYCATWDDSLNGYVFGGGTKLTVLG
notes: also called clone C9
B3: scFv F5 (scFv)
scFv: EVQLLESGGGLVQPGGSLRLSCAASGFTFSDYAMSWVRQAPGKGLEWVSGISYGGGNTYYADSVKGRFTISRDNSKNTLYLQMNSLRAEDTAVYYCAKRLGSFDYWGQGTLVTVSSGGGGSGGGGSGGGGSQSVLTQPPSASGTPGRRVTISCTGTSSNIGSNYVSWYRQLPGTAPKLLIYAGNHRPSGVPDRFSGSKSGTSASLAISGLRSEDEADYYCGSWDSSLSAYVFGGGTKLTVLG
notes: also called clone B5
B4: scFv F8 (scFv)
scFv: EVQLLESGGGLVQPGGSLRLSCAASGFTFSSYSMSWVRQAPGKGLEWVSGISPGSGSIYYADSVKGRFTISRDNSKNTLYLQMNSLRAEDTAVYYCARRIHPFDYWGQGTLVAVSSGGGGSGGGGSGGGGSQSVLTQPPSASGTPGQRVTISCTGSSSNIGNNDVSWYQQLPGTAPKLLIYSDNQRPSGVPGRFSGSKSGTSASLAISGLRSEDEADYYCGAWDSSLNAYVFGGGTKLTVLG
notes: also called clone G3
B5: scFv F10 (scFv)
scFv: EVQLLESGGGLVQPGGSLRLSCAASGFTFSDYSMSWVRQAPGKGLEWVSVISPDSSNTYYADSVKGRFTISRDNSKNTLYLQMNSLRAEDTAVYYCAKVTGTCGPRSCYYYDAMDVWGQGTLVTVSSGGGGSGGGGSGGGGSQSVLTQPPSASGTPGQRVTISCSGSSSNIGSNAVSWYQQLPGTAPKLLIYYNSHRPSGVPDRFSGPKSGTSASLAISGLRSEDEADYYCATWDSSLNGYVFGGGTKLTVLG
B6: scFv N34 (scFv)
scFv: EVQLLESGGGLVQPGGSLRLSCAASGFTFSNYAMSWVRQAPGKGLEWVSAIYPGGGSIYYADSVKGRFTISRDNSKNTLYLQMNSLRAEDTAVYYCARRLQIFDYWGQGTLVTVSSGGGGSGGGGSGGGGSQSVLTQPPSASGTPGQRVTISCTGSSSNIGSNNVTWYQQLPGTAPKLLIYSDSHRPSGVPDRFSGSKSGTSASLAISGLQSEDEADYYCGSWDYSLSAYVFGGGTKLTVLG
notes: also called clone C11
B7: scFv N314 (scFv)
scFv: EVQLLESGGGLVQPGGSLRLSCAASGFTFGGYAMSWVRQAPGKGLEWVSGIYPGGGSTYYADSVKGRFTISRDNSKNTLYLQMNSLRAEDTAVYYCARRLTIFDYWGQGTLVTVSSGGGGSGGGGSGGGGSQSVLTQPPSASGTPGQRVTISCSGSSSNIGNNDVTWYQQLPGTAPKLLIYSDSHRPSGVPDRFSGSKSGTSASLAISGLRSEDEADYYCGTWDDSLSGYVFGGGTKLTVLG
notes: also called clone G11
B8: scFv N43 (scFv)
scFv: EVQLLESGGGLVQPGGSLRLSCAASGFTFSDYSMGWVRQAPGRGLEWVSGIYPSGGNTYYADSVKGRFTISRDNSKNTLYLQMNSLRAEDTAVYYCAKRPSRFDYWGQGTLVAVSSGGGGSGGGGSGGGGSQSVLTQPPSASGTPGQRVTISCTGSSSNIGNNDVNWYQQLPGTAPKLLIYSNSHRPSGVPDRFSGSKSGTSASLAISGLRSEDEADYYCGTWDDSLNGYVFGGGTKLTVLG
B9: scFv F6 (scFv)
scFv: EVQLLESGGGLVQPGGSLRLSCAASGFTFSNYAMSWVRQAPGKGLEWVSSISSNSGNKYYADSVKGRFTISRDNSKNTLYLQMNSLRAEDTAVYYCAKATLGMDHIHAYSAYGMDVWGQGTLVTVSSGGGGSGGGGSGGGGSQSVLTQPPSASGTPGQRATISCTGSSSNIGSNSVSWYQQLPGTAPKLLIYANSNRPSGVPDRFSGSKSGTSASLAISGLRSEDEADYYCAAWDDSLNAYVFGGGTKLTVLG
notes: also called clone C5

How the values were obtained:
[1] = molecular target: T1, Annexin A1 on cancer cells (SNU1, …); test: cell-based ELISA on SNU1 and MDA-MB-231 cells, 250/125/25 ng scFv per well, anti-HA-HRP
Protocol: The selected Annexin A1-binding scFv was analyzed for binding specificity by cell-based ELISA using the cancer cells SNU1 and MDA-MB-231 in which Annexin A1 is overexpressed.
Briefly, after SNU1 (ATCC) and MDA-MB-231 (ATCC) cancer cells were maintained at 37° C. in RPMI-1640 and DMEM, respectively, under a supply of 5% CO₂, they were seeded at a density of 5×10⁵ cells into 96-well plates (NUNC). Purified proteins from the selected scFv (N32, N33, N43, N46, N48, N314, N36, F2, F4, F5, F6, F8, F10) were added in an amount of 250 ng, 125 ng, or 25 ng to each well, incubated at 4° C. for 90 min, and washed twice with HBSS (+) buffer (Gibco, 14025-092; HBSS containing Ca²⁺ and Mg²⁺; calcium chloride (CaCl₂) 12.6 mM, magnesium chloride 4.9 mM, and magnesium sulfate 4 mM). Thereafter, a 1/200 dilution of an anti-HA-HRP secondary antibody (Santa Cruz), configured to detect an HA tag conjugated to an scFv terminus, was added to in an amount of 50 ul to each well, and incubated for 1 hr. A color was developed for 10 min with the addition of 150 ul of the Super AquaBlue ELISA substrate solution (eBioScience) for the HRP of the secondary antibody. Absorbance was read at 405 nm to determine the binding of scFv to the Annexin A1 on cancer cells.

[2] = molecular target: T2, full-length Annexin A1 protein (346 …); test: scFv selected by ELISA on plate-coated full-length Annexin A1, anti-HA-HRP detection
[3] = molecular target: T3, Annexin A1 N-terminal peptide (30 amino …); test: scFv selected by ELISA on biotinylated N-terminal peptide on streptavidin plates, anti-HA-HRP detection
[4] = molecular target: T3, Annexin A1 N-terminal peptide (30 amino …); test: scFv selected by ELISA on biotinylated N-terminal peptide

Binder	binding result [1]	binding result [2]	binding result [3]	binding result [4]
B1	binds	binds		
B2	binds		binds	
B3	binds	binds		
B4	binds	binds		
B5	binds	binds		
B6				binds
B7	binds		binds	
B8	binds		binds	
B9	binds	binds		
